In one assay the target is T1, GFP-RIIα D/D (mouse, UniProt P12367 1-46).
T1 construct: range 1-46; His tag cleaved with thrombin; also called GFP-RII D/D; D/D domain of mouse RIIα (residues 1-46) fused to GFP; not shown: green fluorescent protein (GFP)
Nature of the assay: SPOT peptide array, anti-GFP detection. The method, then: (§1) In addition, the minimal sequence required for regulatory subunit binding was also assessed using N- and C-terminal truncations of the 27-residue human D-AKAP2 sequence. N-terminal or C-terminal truncated peptides were synthesized using SPOT synthesis on cellulose membrane as described herein. Binding was evaluated by incubating each membrane with GFP-RIα D/D and GFP-RIIα D/D as indicated below. The dimerization/docking (D/D) domain of bovine RIα (residues 1-109) and mouse RIIα (residues 1-46), fused to green fluorescence protein (GFP) were subcloned into a pRSET expression vector (Invitrogen, Carlsbad, Calif.) downstream of a histidine tag. The proteins, GFP-RIα D/D and GFP-RIIα D/D were expressed in E. coli BL21 (DE3) and purified using Talon (Clontech, Palo Alto, Calif.) resin. The His tag was cleaved using thrombin and the protein further purified using an S75-Sephadex (16/60) gel filtration column (Pharmacia, Peapack, N.J.) in 50 mM MES pH 5.8, 50 mM NaCl, 2 mM EDTA, 2 mM EGTA, 2 mM DTT. The protein was stored at 4° C.
(§2) Bound protein was detected using a primary antibody against GFP and enzyme conjugated secondary antibody for amplification of signal. The membrane was then analyzed by chemiluminescence.

The target of another assay is T2, GFP-RIα D/D (bovine, UniProt P00514 1-109).
T2 construct: range 1-109; His tag cleaved with thrombin; also called dimerization/docking (D/D) domain of bovine RIα (residues 1-109) fused to GFP; not shown: green fluorescent protein (GFP)
Nature of the assay: SPOT peptide array, anti-GFP detection. The method, then: as §1, §2

Ends that are not written are not given here.

We go through 16 molecules from patent publication US20030232420A1 (SEQUENOM, published 2003).

T1 sequence (P12367 1-46): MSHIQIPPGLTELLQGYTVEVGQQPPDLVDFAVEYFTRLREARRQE
T2 sequence (P00514 1-109): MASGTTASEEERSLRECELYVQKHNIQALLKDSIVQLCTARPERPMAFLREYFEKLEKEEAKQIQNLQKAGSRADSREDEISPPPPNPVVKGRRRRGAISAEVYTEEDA

Take VQGNTDEAQEELAW (also: cellulose-bound) [SEQ ID NO:95 peptide]: the binding result with GFP-RIIα D/D and in the assay with GFP-RIα D/D was “no binding” each time.

As for VQGNTDEAQEELAWKIA (also: cellulose-bound) [SEQ ID NO:92 peptide], the binding result in the assay with GFP-RIIα D/D and with GFP-RIα D/D was “no binding” each time.

In the case of VQGNTDEAQEELAWKIAKMIVS (also: cellulose-bound) [SEQ ID NO:87 peptide], the binding result with GFP-RIIα D/D is given as “binds”; with GFP-RIα D/D it was “no binding”.

On to VQGNTDEAQEELAWKIAKMIV (also: cellulose-bound) [SEQ ID NO:88 peptide], for which the binding result with GFP-RIIα D/D was “binds”; with GFP-RIα D/D it was “no binding”.

As to VQGNTDEAQEELAWKIAKMIVSDI (also: cellulose-bound) [SEQ ID NO:85 peptide], the binding result with GFP-RIIα D/D and with GFP-RIα D/D was “binds” each time.

Regarding VQGNTDEAQEELAWKIAK (also: cellulose-bound) [SEQ ID NO:91 peptide], the binding result with GFP-RIIα D/D and with GFP-RIα D/D was “no binding” each time.

Turning to VQGNTDEAQEELAWKIAKM (also: cellulose-bound) [SEQ ID NO:90 peptide], the binding result with GFP-RIIα D/D and with GFP-RIα D/D was “no binding” each time.

For VQGNTDEAQEELAWKIAKMIVSDIM (also: cellulose-bound) [SEQ ID NO:84 peptide], the binding result with GFP-RIIα D/D and with GFP-RIα D/D was “binds” in each case.

VQGNTDEAQEELAWKI (also: cellulose-bound) [SEQ ID NO:93 peptide]: the binding result with GFP-RIIα D/D and with GFP-RIα D/D was “no binding” each time.

Take VQGNTDEAQEEL (also: cellulose-bound) [SEQ ID NO:97 peptide]: the binding result with GFP-RIIα D/D and with GFP-RIα D/D was “no binding” each time.

For VQGNTDEAQEE (also: cellulose-bound) [SEQ ID NO:98 peptide], the binding result with GFP-RIIα D/D and with GFP-RIα D/D was “no binding” throughout.

Consider VQGNTDEAQEELAWKIAKMIVSDIMQ (also: cellulose-bound) [SEQ ID NO:83 peptide], for which the binding result in the assay with GFP-RIIα D/D and with GFP-RIα D/D was “binds” throughout.

On to VQGNTDEAQEELAWK (also: cellulose-bound) [SEQ ID NO:94 peptide], for which the binding result in the assay with GFP-RIIα D/D and with GFP-RIα D/D was “no binding” each time.

Consider VQGNTDEAQEELAWKIAKMI (also: cellulose-bound) [SEQ ID NO:89 peptide], for which the binding result with GFP-RIIα D/D and in the assay with GFP-RIα D/D was “no binding” in each case.

In the case of VQGNTDEAQEELA (also: cellulose-bound) [SEQ ID NO:96 peptide], the binding result with GFP-RIIα D/D and in the assay with GFP-RIα D/D was “no binding” in each case.

For the molecule VQGNTDEAQEELAWKIAKMIVSD (also: cellulose-bound) [SEQ ID NO:86 peptide], the binding result with GFP-RIIα D/D is given as “binds”; in the assay with GFP-RIα D/D, “no binding”.
